According to patent publication US20260167728A1 (published 2026):
Changes are numbered by the printed parent chain.

B1: AC3804 (CD3.300) (scFv, V domains shown)
VH: EVQLVESGGGIVQPGGSLRLSCAASGFTFSTYAMNWVRQAPGKGLEWVGRIRTKRNNYATYYADSVKGRFTISRDDSKNTVYLQMNSLKTEDTAVYYCVRHENFGNSYVSWFAHWGQGTLVTVSS
VL: ELVVTQEPSLTVSPGGTVTLTCRSSNGAVTSSNYANWVQQKPGQAPRGLIGGTNKRAPGTPARFSGSLLEGKAALTLSGVQPEDEAVYYCALWYPNLWVFGGGTKLTVL
notes: Pool 3 format (remarks)
B2: AC3826 (CD3.322) (scFv, V domains shown)
VH: B1 VH with S30N, R55T
VL: B1 VL with L69N, E70G
notes: Pool 3 format (remarks)
B3: AC3807 (CD3.303) (scFv, V domains shown)
VH: B1 VH with N57D, V81A
VL: B1 VL with L68G, E70G
notes: Pool 3 format (remarks)
B4: AC3815 (CD3.311) (scFv, V domains shown)
VH: B1 VH with N57D, V81L
VL: B1 VL with L68A, E70G
notes: Pool 3 format (remarks)
B5: AC3819 (CD3.315) (scFv, V domains shown)
VH: B1 VH with N57D, V81L
VL: B1 VL with L69G, E70G
notes: Pool 3 format (remarks)
B6: AC3824 (CD3.320) (scFv, V domains shown)
VH: B1 VH with S30N, R55T
VL: B1 VL with L68A, E70G
notes: Pool 3 format (remarks)
B7: AC3810 (CD3.306) (scFv, V domains shown)
VH: B1 VH with N57D, V81A
VL: B1 VL with L69G, E70G
notes: Pool 3 format (remarks)
B8: AC3828 (CD3.324) (scFv, V domains shown)
VH: B1 VH with S30N, R55T
VL: B1 VL with L69G, E70G
notes: Pool 3 format (remarks)
B9: AC3821 (CD3.317) (scFv, V domains shown)
VH: B1 VH with N57D, V81L
VL: B1 VL with E70G, A74G
notes: Pool 3 format (remarks)
B10: AC3814 (CD3.310) (scFv, V domains shown)
VH: B1 VH with N57D, V81L
VL: B1 VL with E70G
notes: Pool 3 format (remarks)
B11: AC3825 (CD3.321) (scFv, V domains shown)
VH: B1 VH with S30N, R55T
VL: B1 VL with L68G, E70G
notes: Pool 3 format (remarks)
B12: AC3812 (CD3.308) (scFv, V domains shown)
VH: B1 VH with N57D, V81A
VL: B1 VL with E70G, A74G
notes: Pool 3 format (remarks)
B13: AC3806 (CD3.302) (scFv, V domains shown)
VH: B1 VH with N57D, V81A
VL: B1 VL with L68A, E70G
notes: Pool 3 format (remarks)
B14: AC3808 (CD3.304) (scFv, V domains shown)
VH: B1 VH with N57D, V81A
VL: B1 VL with L69N, E70G
notes: Pool 3 format (remarks)
B15: AC3820 (CD3.316) (scFv, V domains shown)
VH: B1 VH with N57D, V81L
VL: B1 VL with L69D, E70G
notes: Pool 3 format (remarks)
B16: AC3816 (CD3.312) (scFv, V domains shown)
VH: B1 VH with N57D, V81L
VL: B1 VL with L68G, E70G
notes: Pool 3 format (remarks)
B17: AC3818 (CD3.314) (scFv, V domains shown)
VH: B1 VH with N57D, V81L
VL: B1 VL with L69E, E70G
notes: Pool 3 format (remarks)
B18: AC3817 (CD3.313) (scFv, V domains shown)
VH: B1 VH with N57D, V81L
VL: B1 VL with L69N, E70G
notes: Pool 3 format (remarks)

Each binder was assayed against T1, huCD3e-mFc (human, UniProt P07766 23-126) (assay: Pool 3 screen).
T1 construct: not shown: mFc, not described
T1 sequence (P07766 23-126): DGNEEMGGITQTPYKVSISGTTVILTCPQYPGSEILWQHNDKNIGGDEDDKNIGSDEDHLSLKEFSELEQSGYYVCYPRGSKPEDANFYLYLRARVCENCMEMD
With B1 the Kd was 36.6 nM. With B2 the Kd was 7 nM. With B3 the Kd was 6.08 nM. Work on B4 yielded a Kd of 4.53 nM. In the case of B5, the Kd is reported as 3.4 nM. Binder B6 has a Kd of 10.9 nM. B7 was tested, and the Kd was 5.09 nM. In the case of B8, the Kd is reported as 7.21 nM. Binder B9 has a Kd of 4.1 nM. With B10 the Kd was 4.1 nM. Work on B11 yielded a Kd of 10 nM. Work on B12 yielded a Kd of 5.56 nM. B13 gave a Kd of 5.09 nM. Binder B14 has a Kd of 4.31 nM. Binder B15 has a Kd of 3.99 nM. Binder B16 has a Kd of 4.12 nM. B17 was tested, and the Kd was 4.02 nM. For B18, the Kd was 3.86 nM.
